In article PMC10908835, “Alternative low-populated conformations prompt phase transitions in polyalanine repeat expansions” (Nature Communications, 2024):

How the values were obtained:
[1] = target: T1, human HSP72 (named HSP70) (human, UniProt P0DMV8 1-641); experiment: NMR titration; 15N-HSQC signal intensity; 0.07 mM 15N/13C XS26 with fresh 0.14 mM unlabelled HSP70 or HSP90 (1:2), 25 °C, 20 mM Hepes, 10 mM NaCl, 5 mM MgCl2, 2 mM ATP, 1 mM DTT, pH 6.8; details: both partners purified
T1 construct: Unlabelled in the NMR titrations; 2 mM ATP and 5 mM MgCl2 in the buffer
T1 sequence (P0DMV8 whole entry): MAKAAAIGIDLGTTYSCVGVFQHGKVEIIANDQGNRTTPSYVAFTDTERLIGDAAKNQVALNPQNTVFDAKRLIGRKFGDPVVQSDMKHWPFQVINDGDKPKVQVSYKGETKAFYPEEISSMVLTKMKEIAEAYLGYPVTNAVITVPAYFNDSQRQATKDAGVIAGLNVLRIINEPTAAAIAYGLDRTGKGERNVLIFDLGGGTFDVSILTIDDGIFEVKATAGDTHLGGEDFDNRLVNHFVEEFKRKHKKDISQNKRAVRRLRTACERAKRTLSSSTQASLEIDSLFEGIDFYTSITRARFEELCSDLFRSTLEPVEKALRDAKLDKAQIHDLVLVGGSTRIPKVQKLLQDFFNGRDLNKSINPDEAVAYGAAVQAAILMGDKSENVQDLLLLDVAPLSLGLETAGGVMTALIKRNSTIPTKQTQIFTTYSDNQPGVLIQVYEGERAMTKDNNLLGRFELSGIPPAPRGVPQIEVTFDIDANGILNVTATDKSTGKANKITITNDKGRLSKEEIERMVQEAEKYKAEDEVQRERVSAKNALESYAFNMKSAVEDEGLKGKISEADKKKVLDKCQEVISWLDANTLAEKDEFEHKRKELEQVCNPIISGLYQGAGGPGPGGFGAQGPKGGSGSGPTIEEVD

[2] = target: T2, human HSP90β (named HSP90) (human, UniProt P08238 1-724); experiment: as above; details: both partners purified
T2 construct: Unlabelled in the NMR titrations
T2 sequence (P08238 whole entry): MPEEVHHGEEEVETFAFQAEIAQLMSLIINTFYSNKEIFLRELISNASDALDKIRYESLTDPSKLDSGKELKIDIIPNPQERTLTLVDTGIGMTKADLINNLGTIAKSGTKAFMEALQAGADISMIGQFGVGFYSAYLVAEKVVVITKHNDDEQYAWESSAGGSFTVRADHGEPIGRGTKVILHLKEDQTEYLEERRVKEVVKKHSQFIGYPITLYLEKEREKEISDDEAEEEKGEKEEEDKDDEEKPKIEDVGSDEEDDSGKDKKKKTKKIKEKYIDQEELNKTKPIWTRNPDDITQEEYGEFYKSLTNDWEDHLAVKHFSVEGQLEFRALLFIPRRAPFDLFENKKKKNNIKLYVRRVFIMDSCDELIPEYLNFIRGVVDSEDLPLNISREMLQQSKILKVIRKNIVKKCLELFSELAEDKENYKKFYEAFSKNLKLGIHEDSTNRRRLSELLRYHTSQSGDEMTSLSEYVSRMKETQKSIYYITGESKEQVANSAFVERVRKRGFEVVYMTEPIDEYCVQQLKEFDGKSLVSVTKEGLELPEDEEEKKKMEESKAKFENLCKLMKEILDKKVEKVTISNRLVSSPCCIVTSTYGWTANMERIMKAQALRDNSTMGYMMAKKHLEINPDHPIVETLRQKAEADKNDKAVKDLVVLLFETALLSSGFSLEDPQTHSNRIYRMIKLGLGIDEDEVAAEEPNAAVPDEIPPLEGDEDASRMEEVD

[3] = target: the molecule itself; experiment: NMR 15N spin relaxation (overall correlation time against that computed for the helix); 0.05 and 0.5 mM XS20, 0.5 mM XS23, 0.5 mM XS26 in NMR buffer (5 mM KPi, 10 mM NaCl, 2 mM β-mercaptoethanol, pH 6.8), 25 °C, 800 MHz
[4] = target: the molecule itself; experiment: NMR 15N spin relaxation (overall correlation time against that computed for the helix); 0.5 mM 15N/13C XS20 in NMR buffer (5 mM KPi, 10 mM NaCl, 2 mM β-mercaptoethanol, pH 6.8), 5 °C, 800 MHz

| Binder | binding result [1] | binding result [2] | binding result [3] | binding result [4] |
| --- | --- | --- | --- | --- |
| human PHOX2B fragment 228-314 with a +6 Ala expansion (XS26) (domain or fragment, UniProt Q99453 228-314, looked up, Made by mutagenic PCR; 15N/13C-labelled for NMR titrations; also called +6 Ala variant; expanded PHOX2B; not shown: Thioredoxin, N-terminal, cleaved; His6, N-terminal, cleaved) GPGGPGGEPGKGGAAAAAAAAAAAAAAAAAAAAAAAAAAGGLAAAGGPGQGWAPGPGPITSIPDSLGGPFASVLSSLQRPNGAKAALVKSSMF | binds | binds | binds |  |
| human PHOX2B fragment 228-314 (XS20) (domain or fragment, UniProt Q99453 228-314, looked up, Paired mesoderm homeobox protein 2B (PHOX2B), human, residues 228-314, holds the 20-alanine tract (residues 241-260); 15N/13C-labelled for NMR; also called PHOX2B C-terminal fragment; wild-type PHOX2B; not shown: Thioredoxin, N-terminal, cleaved; His6, N-terminal, cleaved) GPGGPGGEPGKGGAAAAAAAAAAAAAAAAAAAAGGLAAAGGPGQGWAPGPGPITSIPDSLGGPFASVLSSLQRPNGAKAALVKSSMF |  |  |  | binds |
| human PHOX2B fragment 228-314 with a +3 Ala expansion (XS23) (domain or fragment, UniProt Q99453 228-314, looked up, PHOX2B, human, residues 228-314 (wild-type numbering) with 3 alanines added to the 20-alanine tract (241-260); Made by mutagenic PCR; 15N/13C-labelled for NMR; also called +3 Ala variant; +3 PARM; not shown: Thioredoxin, N-terminal, cleaved; His6, N-terminal, cleaved) GPGGPGGEPGKGGAAAAAAAAAAAAAAAAAAAAAAAGGLAAAGGPGQGWAPGPGPITSIPDSLGGPFASVLSSLQRPNGAKAALVKSSMF |  |  | binds |  |
